The target of the assay is envelope protein of DENV type 2 (DENV2), strain NGC M29095 (dengue virus type 2 (strain NGC)) (UniProt P14340). The assay is described as follows: cell-based or functional assay.

Drawing on US20190248875A1, this text covers fold of infection enhancement of DENV2 in K562 cells (ADE assay) for one substance.

Take “4G2 antibodies against the envelope protein of Flavivirus (antibody)”: the fold of infection enhancement of DENV2 in K562 cells (ADE assay) was 60 fold.
